Experimental data: ChEMBL document CHEMBL1151808, “Substrate promiscuity of the cyclic dipeptide prenyltransferases from Aspergillus fumigatus ( section sign)” (J Nat Prod, 2009)

Experiments:
[1] = substrate: O=C1N[C@@H](Cc2c[nH]c3ccccc23)C(=O)N2CCC[C@@H]12; test: (§1) Activity at Aspergillus fumigatus FtmPT1 by HPLC analysis
[2] = substrate: N[C@@H](Cc1c[nH]c2ccccc12)C(=O)O; test: as §1

B1: Tryprostatin B synthase ftmPT1 (Aspergillus fumigatus), Q4WAW7 (protein)
chain: MPPAPPDQKPCHQLQPAPYRALSESILFGSVDEERWWHSTAPILSRLLISSNYDVDVQYKYLSLYRHLVLPALGPYPQRDPETGIIATQWRSGMVLTGLPIEFSNNVARALIRIGVDPVTADSGTAQDPFNTTRPKVYLETAARLLPGVDLTRFYEFETELVITKAEEAVLQANPDLFRSPWKSQILTAMDLQKSGTVLVKAYFYPQPKSAVTGRSTEDLLVNAIRKVDREGRFETQLANLQRYIERRRRGLHVPGVTADKPPATAADKAFDACSFFPHFLSTDLVEPGKSRVKFYASERHVNLQMVEDIWTFGGLRRDPDALRGLELLRHFWADIQMREGYYTMPRGFCELGKSSAGFEAPMMFHFHLDGSQSPFPDPQMYVCVFGMNSRKLVEGLTTFYRRVGWEEMASHYQGNFLANYPDEDFEKAAHLCAYVSFAYKNGGAYVTLYNHSFNPVGDVSFPN
[1]
  Km: 55 µM
  kcat: 5.57 s⁻¹
[2]
  Km: 820 µM
  kcat: 0.12 s⁻¹
